Assay results taken from paper PMC6042779.

Target: SRC (UniProt P12931)
Experiment: bead-immobilized peptide pulldown of SRC-GST
Details: reference: nonphosphorylated FAK peptide; sites Y397

Substance: FAK FERM-kinase linker region, 358-409 (from UniProt P34152) pY397 FAK peptide
- binding against the reference: gained
